{"source": "paper PMC7885398", "about": "“Multi-carbon dots and aptamer based signal amplification ratiometric fluorescence probe for protein tyrosine kinase 7 detection”", "target": "T1, Protein tyrosine kinase 7 (PTK 7) (UniProt Q13308 31-704)", "T1 sequence": "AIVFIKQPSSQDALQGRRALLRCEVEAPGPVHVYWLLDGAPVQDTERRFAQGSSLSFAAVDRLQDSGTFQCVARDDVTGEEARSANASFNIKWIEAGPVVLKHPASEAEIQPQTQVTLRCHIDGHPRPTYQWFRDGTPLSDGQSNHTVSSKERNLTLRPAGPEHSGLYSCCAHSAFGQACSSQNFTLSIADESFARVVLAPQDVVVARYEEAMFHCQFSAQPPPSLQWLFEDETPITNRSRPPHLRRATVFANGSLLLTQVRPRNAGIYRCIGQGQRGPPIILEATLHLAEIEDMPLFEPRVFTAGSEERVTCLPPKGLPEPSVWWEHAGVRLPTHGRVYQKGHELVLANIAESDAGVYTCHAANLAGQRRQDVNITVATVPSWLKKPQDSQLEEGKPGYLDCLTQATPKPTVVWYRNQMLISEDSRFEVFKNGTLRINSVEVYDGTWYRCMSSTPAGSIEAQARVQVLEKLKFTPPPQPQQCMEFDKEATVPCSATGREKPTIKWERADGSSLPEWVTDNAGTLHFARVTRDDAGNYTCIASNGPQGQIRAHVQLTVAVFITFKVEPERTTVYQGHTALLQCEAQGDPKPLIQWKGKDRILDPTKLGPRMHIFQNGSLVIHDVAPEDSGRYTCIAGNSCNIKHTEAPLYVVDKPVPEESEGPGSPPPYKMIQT", "experiment": "competition: displacement of y-CDs-APT from Fe3O4-cDNA, ratiometric fluorescence; Fe3O4-cDNA (S2) competitor strand; PTK7 0.1-200 ng/mL, LOD 0.016 ng/mL; Buffer, salt and pH not given in material; probe hybridisation 25 °C, 60 min; DNase I amplification", "details": "protein: recombinant; label: y-CDs (emission 580 nm); assayed pre-hybridised to partly complementary cDNA S2 on Fe3O4; PTK7 displaces S2"}
{"binder": "ATCTAACTGCTGCGCCGCCGGGAAAATACTGTACGGTTAGA (ssDNA, conjugated to yellow carbon dots (y-CDs); attachment end not stated)", "note": "[APT (PTK7 aptamer), as y-CDs-APT]", "values": [{"measurement": "binding result", "result": "binds"}]}
